Measured values published in publication PMC8688572 (The Journal of Biological Chemistry, 2021).

Molecular target: the molecule itself
Assay: negative stain electron microscopy

B1: zebrafish Impdh1a (544) (enzyme)
chain: not shown
B1: binds.
